Test results as given in the nanobody polyreactivity screen of Harvey et al. (2022).

Test: yeast display, Sf9 membrane polyspecificity reagent, FACS + sequencing; frameworks hold sequencing errors
Summary of the method: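 Galactose induction of a Saccharomyces cerevisiae BJ5465 synthetic nanobody display library ran 36–48 hours. The cells were then stained for 1 hour at 4 °C with 10% biotinylated, detergent-solubilized Sf9 membrane reagent, pulled down on streptavidin microbeads and FACS-sorted into low and high (top ~1%) gates on expression and reagent-binding fluorescence. Labels for polyreactivity follow the gate of origin.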

Row | Sequence | polyreactivity (PSR sort gate)
1 | QVQLVESGGGLVQAGGSLRLSCAASGLIFSQNAMGWYRQAPGKERELVARITLSGTSTYYADSVKGRFTISRDNAKNTVYLQMNSLKPEDTAVYYCNTRSYSYYVPYRYDYWGQGTQVTVSS | high polyreactivity
2 | QVQLVESGGGLVQAGGSLRLSCAASGLIFSQNAMGWYRQAPGKERELVARITWSGTSTYYADSVKGRFTISRDNAKNTVYLQMNSLKPEDTAVYYCAADRPRGRETVDYWGQGTQVTVSS | high polyreactivity
3 | QVQLVESGGGLVQAGGSLRLSCAASGLIFSRNAMGWYRQAPGKERELVAAISGGGGSTYYADSVKGRFTISRDNAKNTVYLQMNSLKPEDTAVYYCAAKGYWWRTPWIATYDYWGQGTQVTVSS | high polyreactivity
4 | QVQLVESGGGLVQAGGSLRLSCAASGLIFSRYTMGWYRQPPGKERELVAAISSDGSTYYADSVKGRFTISRDNAKNTVYLQMNSLKPEDTAVYYCAARYWVGGRDRYDSWGQGTQVTVSS | high polyreactivity
5 | QVQLVESGGGLVQAGGSLRLSCAASGLIFSRYVMGWYRQAPGKERELVAAISRSGGSTYYADSVKGRFTISRDIAKNTVYLQMNSLKPEDTAVYYCNAGRRTGRYGYWGQGTQVTVSS | high polyreactivity
6 | QVQLVESGGGLVQAGGSLRLSCAASGLIFSTNDMGWYRQAPGKERELVAAITSDVSTYYADSVKGRFTISRDNAKNTVYLQMNSLEPEDTAVYYCAKDDSGYINWRYDYWGQGTQVTVSS | low polyreactivity
7 | QVQLVESGGGLVQAGGSLRLSCAASGLIFSTYYMGWYRQAPRKERELVAAISTGGSTYCADSVKGRFTISRDNAKNTVYLQMNSLKPEDTAVYYCAAGYTYHSWPLYYWDYNYWGQGTQVTVSS | low polyreactivity
8 | QVQLVESGGGLVQAGGSLRLSCAASGLIFSYNDMGWYRQAPGKERELVASISNGGSTNYADSVKGRFTISRDNAKNTVYLQMNSLKPEDTAVYYCAAEGALGEVYWWNVRRYYWGQGTQVTVSS | low polyreactivity
9 | QVQLVESGGGLVQAGGSLRLSCAASGLIFTAYAMGWYRQAPGKERELVAAIDWRGGSTSYADSVKGRFTISRDNAKNTVYLQMNSLKPEDTAVYYCAADYYSKYVRFGYWGQGTQVTVSS | high polyreactivity
10 | QVQLVESGGGLVQAGGSLRLSCAASGLIFTDNTRGWYRQAPGKEREFVADISSSGGITYYADSVKGRFTFSRDNAKNTVYLQMNSLKPEDTAVYYCNAERGYDYLDGYPFFIYDYWGQGTQVTVSS | low polyreactivity
11 | QVQLVESGGGLVQAGGSLRLSCAASGLIFTTNAMGWYRQAPGKERELVAAISTSTGRTYYADSVKGRFTISRDTAKNTVYFQMNSLKPEDTAVYYCAADGFLSYYGFWRYEYWGQGTQVTVSS | high polyreactivity
12 | QVQLVESGGGLVQAGGSLRLSCAASGLIFTYYAMGWYRQAPGKERELVAAIRVNGGSTYYADSVKGRFTISRDNAKNTVYFQMNSLKPEDTAVFYCAADYYRLRAASYLIRLNYWGQGTQVTVSS | high polyreactivity
13 | QVQLVESGGGLVQAGGSLRLSCAASGLIFTYYAMGWYRQAPGKERELVAAITSGGRTNYADSVKGRFTISRDNAKNTVYLQMNSLKPEDTAVYYCAATSSWRANYRTWVYRYDYWGQGTQVTVSS | high polyreactivity
14 | QVQLVESGGGLVQAGGSLRLSCAASGLIFTYYDIGWYRQEPGKERELVASISWDGGRTYYADSVKGRFTIARDNAKKTVYLQMNSLKPEDTAVYYCAKRLGGSPIQARGDFWGQGTQVTVSS | low polyreactivity
15 | QVQLVESGGGLVQAGGSLRLSCAASGLIFVGYAMGWYRQAPGKERELVAAITSGGSTYYADSVKGRFTISRDNAKNTVYLQMNSLKPEDTAVYYCAAQQGISNGTGVSATNPMDYWGHGTQVTVSS | low polyreactivity
16 | QVQLVESGGGLVQAGGSLRLSCAASGLIFVNAMGWYRQAPGKEREFVAAITYSTGSTYYADSVKGRFTISRDNAKNTVYLQMNSLKPEDTAVYYCAKDRSGHGTERDYWGQGTQVTVSS | low polyreactivity
17 | QVQLVESGGGLVQAGGSLRLSCAASGLIFVQYVMGWYRQAPGKERELVAAITDDGNTYYADSVKGRFTISRDNAKNTVYLQMKSLKPEDTAVYYCNAVLRSYDFWPGYGYWGQGTQVTVSS | low polyreactivity
18 | QVQLVESGGGLVQAGGSLRLSCAASGLIFVWYAMGWYRQAPGKERELVAAITRSGGSTYYADSVKGRFTISRDNAKNTVYLQMNSLKPEDTAVYYCAARWKFPSSFYYWGQGTQVTVSS | high polyreactivity
19 | QVQLVESGGGLVQAGGSLRLSCAASGLIFVYNAMGWYRQAPGKEREFVAGITSGGSTNYADSVKGRFTISRDNAKNPVYLQMNSLKPEDTAVYDCAAGYYDLYLWWGYDYWGQGTQLTVSS | high polyreactivity
20 | QVQLVESGGGLVQAGGSLRLSCAASGLIFWLNAMGWYRQAPGKDCELVAAISRGGSTNYADSVKGRFTISRDNAKNTVYFQMNSLKPEDSAVYYCAAGSRRAAWYDYSYPYGYWGQGTQVTVSS | high polyreactivity

Row | Sequence | polyreactivity (PSR sort gate)
21 | QVQLVESGGGLVQAGGSLRLSCAASGLIFWYYAMGRYRQAPGKERELVASISSGGDTTYADSVKGRFTISRDNAKNTVYLQMNSLKPEDTAVYYGAAERYVRVWVAGILHYDYWGQGTQVTVSS | low polyreactivity
22 | QVQLVESGGGLVQAGGSLRLSCAASGLIFYANVMGWYRQAPGKERELVAAISRSGTSTYYADSVKGRFTISRDNAKNTVYFQMNSLKPEDTAVYYCAADFVKRQANRQFDYWGQGTQVTVSS | high polyreactivity
23 | QVQLVESGGGLVQAGGSLRLSCAASGLIFYDNLGWYRQAPGKDRELVAAISSSGGSTSYADSVKGRFTISRDNAKNTVYLPMNSLKPEDTAVYYCAAKWSHVRDGPKYDYWGQGTQVTVSS | low polyreactivity
24 | QVQLVESGGGLVQAGGSLRLSCAASGLIFYDNMGWYRQAPGKERELVAAISSSGGSTNYADSVKGRFTISRDNAKNTVYLQMNSLKPEDTAVYYCAADSYPAYLGFVGFDYWGQGTQVTVSS | low polyreactivity
25 | QVQLVESGGGLVQAGGSLRLSCAASGLIFYDNMGWYRQPPGKERELVAAITVSGGSTYYADSVKGRFTISRDNAKNTVYLQMKSLKPEDTAVYYCARELLSPTYQRWYYYWGQGTQVTVSS | low polyreactivity
26 | QVQLVESGGGLVQAGGSLRLSCAASGLIFYFYAMGWYRQAPGKERELVAGITNVGSTNYADSVKGRFTISRDNAKNTVYLQMNSLKPEDTAVYYCAAQYYTVRSTYDYWGQGTQVTVSS | high polyreactivity
27 | QVQLVESGGGLVQAGGSLRLSCAASGLIFYGNAMGWYRQAPGKERELVAAISWSGGNTSYADSVKGRFTISRDNAKNTVYLQMNSLKPEDTAVYYCAVDNTGRSWPYDYWGQGTQVTVSS | low polyreactivity
28 | QVQLVESGGGLVQAGGSLRLSCAASGLIFYKNAMGSYRQAPGKEREFVAAISRSGASTYYSDSVMGRFTISRDYAKNTVYLQMKSLKPEVTEVYLCAARAGANYRMDYWGQGTQVTVSS | high polyreactivity
29 | QVQLVESGGGLVQAGGSLRLSCAASGLIFYRNAMGWYRQAPGKERELVAAIRFSTGSTYYADSVKGRFTISRDNAKNTVYLEMNSLKPEDTAVYYCAAALPGYGDYYYWGQGTQVTVSS | high polyreactivity
30 | QVQLVESGGGLVQAGGSLRLSCAASGLIFYRYAMGWYRQAPGKERELVAAISRRGGSTYYADSVKGRFTISRDNAKNTVYLQMNRLKAEETAVYYCAARLPGYYGIGDYWGQGTQVTVSS | high polyreactivity
31 | QVQLVESGGGLVQAGGSLRLSCAASGLIFYRYAMGWYRQAPGKERELVADISWSGGTTYYADSVKGRFTISRDNAKNTVYLQMNSLKPEDTAVYYCAARSVPSPERGFYYWGQGTQVTVSS | high polyreactivity
32 | QVQLVESGGGLVQAGGSLRLSCAASGLIFYRYTMGWNRQAPGKERELVAGITSGGRTYYADSVKGRFTISRDNAKNTFYLQMNSLKPEDTAVYYCAARYFPARTRYYYWGQGTQVTVSS | high polyreactivity
33 | QVQLVESGGGLVQAGGSLRLSCAASGLIFYSYAMGWYRQAPGKERELVAAINGGGGSTYYADSVKGRFTISRDNAKNTVYFQMNSLKPEDTAVSYCAAPYYRLTGWSRYDYWGQGTQVTVSS | high polyreactivity
34 | QVQLVESGGGLVQAGGSLRLSCAASGLIFYWNTMGWYRQAPGKERELVAYISGGGGRTYYADSVKGRFTISRDNAKNTVYLQMNSLKPEDTAVYYCAAKLYGYRSGYYYWGQGTQVTVSS | high polyreactivity
35 | QVQLVESGGGLVQAGGSLRLSCAASGLIFYYYAMGWYRQAPGKERELVAAITRGGRTYYADSVKGRFTISRDNAKNTVYLQMNSLKPEDTAVYYCAAGWYQGFDYWGQGTQVTVSS | high polyreactivity
36 | QVQLVESGGGLVQAGGSLRLSCAASGLIFYYYAMGWYRQAPGQERELVAAITSDDRTYYADSVKGRFTISRDNAKNTVYLQMNSLKPEDTAVYYCAARYHGYLPQYRKYGYGYWGQGTQVTVSS | high polyreactivity
37 | QVQLVESGGGLVQAGGSLRLSCAASGLIFYYYTMGWYRQAPGKERELVARITSSGGRTYYADSVKGRFTISRDNAKNTVYLQMNSLKPEDTAVYYCNARVPRYNGGSTMEYWGQGTQVTVSS | high polyreactivity
38 | QVQLVESGGGLVQAGGSLRLSCAASGLIIASYAMGWYRQAPGKERELVAAINTGGSTYYADSVKGRFTISRDNAKNTVYLQMNSLKPEDTAVYYCAARYTGLSYSRYGYWGQGTQVTVSS | high polyreactivity
39 | QVQLVESGGGLVQAGGSLRLSCAASGLIIPAYAMGWYRQAPGKEREMVATITWRGGSTYYADSVKGRFTISRDNAKNTVYLQMNSLKPEDTAVDYCATRPRYYYFRYDYWGQGSQVTVSS | high polyreactivity
40 | QVQLVESGGGLVQAGGSLRLSCAASGLIIWLYTLGWYRQAPGKESELVAAIDWSGGSTYYADSVKGRFTISRDNAKNTVYLQMNSLKPEDTAVYYCAADPEPSYRFDYWGQGTQVTVSS | low polyreactivity
